Measured values taken from patent publication US11278600B2, “Human alpha-galactosidase variants” (Codexis, Inc., priority 2014, dated 2022).

Legend:
Format in all cases: biochemical
[1] = HTP-analysis of yeast culture supernatants, no challenge (MUGal hydrolysis); settings: activity of the variant/activity of Rd4BB (SEQ ID NO: 15)
How it was run: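 GLA variants expressed in yeast INVSc1, secreted into SD-Ura broth over 66-84 h at 30° C; clarified supernatants tested without challenge. Supernatant mixed with McIlvaine buffer pH 4.8 and 2 mM MUGal (citrate/KCl, pH 4.6), 37° C for 30-180 min, carbonate-quenched, fluorescence Ex 355/Em 448 nm.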

[2] = HTP-analysis of supernatants pretreated with acid (MUGal hydrolysis); settings: activity of the variant/activity of Rd4BB (SEQ ID NO: 15); challenge at pH 3.7
How it was run: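 Fluorescence of MUGal hydrolysis (Ex. 355 nm, Em. 448 nm) is read after sodium carbonate quench. The enzyme source is INVSc1 yeast culture supernatant, first exposed to pH 3.3-4.3 McIlvaine buffer at 37° C. for 1-3 h, then reacted at pH 4.8 for 30-180 minutes.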

[3] = HTP-analysis of supernatants pretreated with base (MUGal hydrolysis); settings: activity of the variant/activity of Rd4BB (SEQ ID NO: 15); challenge at pH 9.65
How it was run: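 Supernatants from INVSc1 yeast expressing GLA variants (SD-Ura, 66-84 h, 30° C) were mixed with McIlvaine buffer pH 7.0-8.2 or 200 mM sodium bicarbonate pH 9.1-9.7 and held 1-18 h at 37° C. Residual activity was then measured on MUGal at pH 4.8/4.3, 37° C, 30-180 min, by fluorescence (Ex 355/Em 448 nm).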

| Molecule | Relative Activity of GLA Variants After No Challenge (NC) [1] | Relative Activity of GLA Variants After Challenge at pH 3.7 [2] | Relative Activity of GLA Variants After Challenge at pH 9.65 [3] |
| --- | --- | --- | --- |
| 410 (protein, Synthetic Polypeptide sequence of Variant No. 410 of mature Human GLA) LDNGLARTPTMGWLHWERFMCNLDCQEEPDSCISEKLFMEMAERMVSEGWKDAGYEYLCIDDCWMAPQRDSEGRLQADPQRFPHGIRQLANYVHSKGLKLGIYADVGNKTCAGFPGSFGYYDIDAQTFADWGVDLLKFDGCYCDSLENLADGYKHMSLALNHTGRSIVYSCEWPLYMWPFQKPNYTEIRQYCNHWRNFADIDDSWKSIKSILDWTSRNQERIVDVAGPGGWNDPDMLVIGNFGLSWDQQVTQMALWAIMAAPLFMSNDLRHISPQAKALLQDKDVIAINQDPLGKQGYQLRKGDNFEVWERPLSGDAWAVAIINRQEIGGPRSYTIPVASLGKGVACNPACFITQLLPVKRQLGFYNWTSRLKSHINPTGTVLLQLENTMQMSLKDLL | + (0.5 to 1.5 relative activity over Rd4BB (SEQ ID NO: 15)) | + (0.5 to 1.5 relative activity over Rd4BB (SEQ ID NO: 15)) | − (<0.5 relative activity over Rd4BB (SEQ ID NO: 15)) |
| 416 (protein, Synthetic Polypeptide sequence of Variant No. 416 of mature Human GLA) LDNGLARTPTMGWLHWERFMCNLDCQEEPDSCISEKLFMEMAERMVSEGWKDAGYEYLCIDDCWMAPQRDSEGRLQADPQRFPHGIRQLANYVHSKGLKLGIYADVGNKTCAGFPGSFGYYDIDAQTFADWGVDLLKFDGCYCDSLENLADGYKHMSLALNGTGRSIVYSCEWPLYMWPFQKPNYTEIRQYCNHWRNFADIDDSWKSIKSILDWTSRNQERIVDVAGPGGWNDPDMLVIGNFGLSWDQQVTQMALWAIMAAPLFMSNDLRHISPQAKALLQDKDVIAINQDPLGKQGYQLRKGDNFEVWERPLSGDAWAVAIINRQEIGGPRSYTIPVASLGKGVACNPACFITQLLPVKRQLGFYNWTSRLKSHINPTGTVLLQLENTMQMSLKDLL | + (0.5 to 1.5 relative activity over Rd4BB (SEQ ID NO: 15)) | + (0.5 to 1.5 relative activity over Rd4BB (SEQ ID NO: 15)) | − (<0.5 relative activity over Rd4BB (SEQ ID NO: 15)) |
| 412 (protein, Synthetic Polypeptide sequence of Variant No. 412 of mature Human GLA) LDNGLARTPTMGWLHWERFMCNLDCQEEPDSCISEKLFMEMAERMVSEGWKDAGYEYLCIDDCWMAPQRDSEGRLQADPQRFPHGIRQLANYVHSKGLKLGIYADVGNKTCAGFPGSFGYYDIDAQTFADWGVDLLKFDGCYCDSLENLADGYKHMSLALNRTGRHIVYSCEWPLYMWPFQKPNYTEIRQYCNHWRNFADIDDSWKSIKSILDWTSRNQERIVDVAGPGGWNDPDMLVIGNFGLSWDQQVTQMALWAIMAAPLFMSNDLRHISPQAKALLQDKDVIAINQDPLGKQGYQLRKGDNFEVWERPLSGDAWAVAIINRQEIGGPRSYTIPVASLGKGVACNPACFITQLLPVKRQLGFYNWTSRLKSHINPTGTVLLQLENTMQMSLKDLL | + (0.5 to 1.5 relative activity over Rd4BB (SEQ ID NO: 15)) | ++ (>1.5 to 2.5 relative activity over Rd4BB (SEQ ID NO: 15)) | + (0.5 to 1.5 relative activity over Rd4BB (SEQ ID NO: 15)) |
| 415 (protein, Synthetic Polypeptide sequence of Variant No. 415 of mature Human GLA) LDNGLARTPTMGWLHWERFMCNLDCQEEPDSCISEKLFMEMAERMVSEGWKDAGYEYLCIDDCWMAPQRDSEGRLQADPQRFPHGIRQLANYVHSKGLKLGIYADVGNKTCAGFPGSFGYYDIDAQTFADWGVDLLKFDGCYCDSLENLADGYKHMSLALNRTGRDIVYSCEWPLYMWPFQKPNYTEIRQYCNHWRNFADIDDSWKSIKSILDWTSRNQERIVDVAGPGGWNDPDMLVIGNFGLSWDQQVTQMALWAIMAAPLFMSNDLRHISPQAKALLQDKDVIAINQDPLGKQGYQLRKGDNFEVWERPLSGDAWAVAIINRQEIGGPRSYTIPVASLGKGVACNPACFITQLLPVKRQLGFYNWTSRLKSHINPTGTVLLQLENTMQMSLKDLL | + (0.5 to 1.5 relative activity over Rd4BB (SEQ ID NO: 15)) | + (0.5 to 1.5 relative activity over Rd4BB (SEQ ID NO: 15)) | + (0.5 to 1.5 relative activity over Rd4BB (SEQ ID NO: 15)) |
| 414 (protein, Synthetic Polypeptide sequence of Variant No. 414 of mature Human GLA) LDNGLARTPTMGWLHWERFMCNLDCQEEPDSCISEKLFMEMAERMVSEGWKDAGYEYLCIDDCWMAPQRDSEGRLQADPQRFPHGIRQLANYVHSKGLKLGIYADVGNKTCAGFPGSFGYYDIDAQTFADWGVDLLKFDGCYCDSLENLADGYKHMSQALNRTGRSIVYSCEWPLYMWPFQKPNYTEIRQYCNHWRNFADIDDSWKSIKSILDWTSRNQERIVDVAGPGGWNDPDMLVIGNFGLSWDQQVTQMALWAIMAAPLFMSNDLRHISPQAKALLQDKDVIAINQDPLGKQGYQLRKGDNFEVWERPLSGDAWAVAIINRQEIGGPRSYTIPVASLGKGVACNPACFITQLLPVKRQLGFYNWTSRLKSHINPTGTVLLQLENTMQMSLKDLL | + (0.5 to 1.5 relative activity over Rd4BB (SEQ ID NO: 15)) | + (0.5 to 1.5 relative activity over Rd4BB (SEQ ID NO: 15)) | + (0.5 to 1.5 relative activity over Rd4BB (SEQ ID NO: 15)) |
| 411 (protein, Synthetic Polypeptide sequence of Variant No. 411 of mature Human GLA) LDNGLARTPTMGWLHWERFMCNLDCQEEPDSCISEKLFMEMAERMVSEGWKDAGYEYLCIDDCWMAPQRDSEGRLQADPQRFPHGIRQLANYVHSKGLKLGIYADVGNKTCAGFPGSFGYYDIDAQTFADWGVDLLKFDGCYCDSLENLADGYKHMSLALNRTGRAIVYSCEWPLYMWPFQKPNYTEIRQYCNHWRNFADIDDSWKSIKSILDWTSRNQERIVDVAGPGGWNDPDMLVIGNFGLSWDQQVTQMALWAIMAAPLFMSNDLRHISPQAKALLQDKDVIAINQDPLGKQGYQLRKGDNFEVWERPLSGDAWAVAIINRQEIGGPRSYTIPVASLGKGVACNPACFITQLLPVKRQLGFYNWTSRLKSHINPTGTVLLQLENTMQMSLKDLL | + (0.5 to 1.5 relative activity over Rd4BB (SEQ ID NO: 15)) | + (0.5 to 1.5 relative activity over Rd4BB (SEQ ID NO: 15)) | + (0.5 to 1.5 relative activity over Rd4BB (SEQ ID NO: 15)) |
